# Results taken from PMC6628566.
# Target: CX3CR1 (UniProt P49238)
# Sequence of UniProt P49238 (P49238 whole entry): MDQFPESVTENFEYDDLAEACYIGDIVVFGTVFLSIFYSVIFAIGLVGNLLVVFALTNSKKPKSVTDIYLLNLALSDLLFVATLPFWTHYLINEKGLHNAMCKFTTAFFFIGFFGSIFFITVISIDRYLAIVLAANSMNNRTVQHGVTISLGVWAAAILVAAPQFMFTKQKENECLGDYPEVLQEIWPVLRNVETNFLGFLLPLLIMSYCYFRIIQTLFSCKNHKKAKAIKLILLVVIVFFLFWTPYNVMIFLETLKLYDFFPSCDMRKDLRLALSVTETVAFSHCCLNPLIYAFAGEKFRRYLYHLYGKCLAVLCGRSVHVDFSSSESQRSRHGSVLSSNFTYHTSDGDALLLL
substance,measurement,value
chemokine domain-only peptide of fractalkine (ckFKN) (domain or fragment),fold decrease in receptor binding affinity against sFKN,10 fold
